This passage reports Kd results from the Immune Epitope Database (IEDB).

One assay has as its target HLA-B*44:02. The experiment in a line: IEDB peptide-MHC binding, purified MHC/direct/fluorescence; filed as Kd, often an IC50 or EC50 that approximates it; ≥ and ≤ were set here for values at or beyond the usual limits of such assays. As to conditions: source organism: West Nile virus.
The target of assay [1] is HLA-B*57:01. The assay is described as above. The conditions noted are these: source organism: West Nile virus.
The next assay addresses HLA-A*01:01. The description is as above.
The target of assay [2] is HLA-A*03:01. The assay is described as above.
Another assay addresses HLA-A*31:01. The description is as above.
The next assay concerns the target HLA-B*48:01. The assay is described as above. As to conditions: source organism: West Nile virus.
For another assay, the target named is HLA-A*11:01. Described as above.
The target of assay [3] is HLA-B*18:01. The description is as above. The conditions noted are these: source organism: West Nile virus.
Another assay concerns the target HLA-B*40:01. The description is as above.
In the next assay the target is HLA-B*27:05. The assay is described as above.
The next assay deals with HLA-B*58:01. The assay is described as above.
Another assay has as its target HLA-C*03:03. The description is as above.
Another assay deals with HLA-B*08:02. Described as above. As to conditions: source organism: West Nile virus strain PTRoxo.
The target in another assay is HLA-A*02:12. The experiment in a line: IEDB peptide-MHC binding, purified MHC/competitive/fluorescence; filed as Kd, often an IC50 or EC50 that approximates it; ≥ and ≤ were set here for values at or beyond the usual limits of such assays.
Another assay concerns the target HLA-A*02:19. The assay is described as above. The conditions noted are these: source organism: Campylobacter jejuni subsp. jejuni NCTC 11168 = ATCC 700819.
The next assay concerns the target HLA-A*02:03. The assay is described as above.
Another assay concerns the target HLA-A*02:11. The assay is described as above.
Another assay has as its target HLA-B*15:17. The description is as above. The conditions noted are these: source organism: Campylobacter jejuni subsp. jejuni NCTC 11168 = ATCC 700819.
For a further assay, the target named is HLA-B*46:01. The assay is described as above.
Assay [4] deals with HLA-B*57:01. Described as above.
Assay [5] has as its target HLA-A*03:01. The description is as above.
Assay [6] has as its target HLA-B*15:01. The description is as above.
For the next assay, the target named is HLA-B*27:03. The description is as above.
In assay [7] the target is HLA-A*02:01. The description is as above.
Assay [8] addresses HLA-B*18:01. The assay is described as above.
A further assay concerns the target HLA-A*29:02. The assay is described as above. The conditions noted are these: source organism: Campylobacter jejuni subsp. jejuni NCTC 11168 = ATCC 700819.
For a further assay, the target named is HLA-B*39:01. The description is as above.
Assay [9] concerns the target HLA-B*51:01. The assay is described as above. As to conditions: source organism: Campylobacter jejuni subsp. jejuni NCTC 11168 = ATCC 700819.
In assay [10] the target is HLA-A*26:01. The assay is described as above.
The target in the next assay is HLA-B*35:01. Briefly: IEDB peptide-MHC binding, purified MHC/direct/fluorescence; filed as Kd, often an IC50 or EC50 that approximates it; ≥ and ≤ were set here for values at or beyond the usual limits of such assays. As to conditions: source organism: Yellow fever virus.
For assay [11], the target named is HLA-B*51:01. The description is as above. The conditions noted are these: source organism: Yellow fever virus.
A further assay deals with HLA-C*14:02. The assay is described as above. The conditions noted are these: source organism: Pan troglodytes.
In a further assay the target is HLA-C*06:02. Described as above.
Another assay concerns the target HLA-C*15:02. Described as above. As to conditions: source organism: Pan troglodytes.
Another assay concerns the target HLA-A*24:03. Described as above.
For another assay, the target named is HLA-B*08:01. The assay is described as above. As to conditions: source organism: Escherichia coli.
The next assay has as its target HLA-A*69:01. The assay is described as above. The conditions noted are these: source organism: Escherichia coli.
Assay [12] has as its target HLA-B*15:01. The assay is described as above. As to conditions: source organism: Escherichia coli.
Assay [13] addresses HLA-A*02:01. Described as above. The conditions noted are these: source organism: Escherichia coli.
Another assay deals with HLA-B*07:02. The assay is described as above. As to conditions: source organism: Escherichia coli.
Assay [14] deals with HLA-A*26:01. The assay is described as above. The conditions noted are these: source organism: Escherichia coli.
The target of the next assay is HLA-A*02:06. The experiment in a line: IEDB peptide-MHC binding, purified MHC/competitive/fluorescence; filed as Kd, often an IC50 or EC50 that approximates it; ≥ and ≤ were set here for values at or beyond the usual limits of such assays. As to conditions: source organism: Escherichia coli.
The mark [15] stands for this setting: source organism: West Nile virus.
[16] abbreviates: source organism: Campylobacter jejuni subsp. jejuni NCTC 11168 = ATCC 700819.
The mark [17] stands for this setting: source organism: Escherichia coli.
The mark [18] stands for this setting: source organism: Pan troglodytes.
[19] abbreviates: source organism: Vaccinia virus WR.

In general, Kd refers to the equilibrium constant for the complex coming apart. A high value points to lower affinity. In the case of ILRNPGYAL, the Kd with HLA-B*44:02, with HLA-B*57:01 [1], with HLA-A*01:01 (setting [15]), in the assay with HLA-A*03:01 [2] (setting [15]), in the assay with HLA-A*31:01 (setting [15]) and with HLA-B*48:01 was ≥ 20 µM in each case. In addition, the Kd with HLA-A*11:01 (setting [15]) was ≥ 20 µM; with HLA-B*18:01 [3] it was ≥ 20 µM; in the assay with HLA-B*40:01 (setting [15]), ≥ 20 µM; with HLA-B*27:05 (setting [15]), ≥ 20 µM; with HLA-B*58:01 (setting [15]), ≥ 20 µM; in the assay with HLA-C*03:03 (setting [15]), 0.157 µM. For the same sequence, in the assay with HLA-B*08:02, the Kd was ≥ 20 µM.

Take FTFERSKIK: the equilibrium dissociation constant (Kd) with HLA-A*02:12 (setting [16]), with HLA-A*02:19, with HLA-A*02:03 (setting [16]), with HLA-A*02:11 (setting [16]), in the assay with HLA-B*15:17 and with HLA-B*46:01 (setting [16]) was ≥ 20 µM each time. Further, the Kd with HLA-B*57:01 [4] (setting [16]) is ≥ 20 µM; with HLA-A*03:01 [5] (setting [16]), 0.2 µM; in the assay with HLA-B*15:01 [6] (setting [16]) it was ≥ 20 µM; with HLA-B*27:03 (setting [16]) it was ≥ 20 µM; with HLA-A*02:01 [7] (setting [16]), ≥ 20 µM; with HLA-B*18:01 [8] (setting [16]) it was ≥ 20 µM. Further, the Kd with HLA-A*29:02, in the assay with HLA-B*39:01 (setting [16]), in the assay with HLA-B*51:01 [9] and in the assay with HLA-A*26:01 [10] (setting [16]) was ≥ 20 µM in each case.

As to YIVGYYSAL, the Kd with HLA-C*03:03 (source organism: Escherichia coli B171) is ≤ 0.001 µM; with HLA-A*02:01 [7] (setting [17]) it was 0.0017 µM; with HLA-B*39:01 (setting [17]) it was 0.0871 µM; with HLA-A*26:01 [10] (setting [17]), 0.232 µM.

On to AATIRVLAL, for which the Kd with HLA-B*35:01 was ≥ 20 µM; with HLA-C*03:03 (source organism: Yellow fever virus), 0.009 µM; with HLA-B*51:01 [11], ≥ 20 µM.

Turning to YYFSYPLFV, the Kd with HLA-C*14:02 is ≤ 0.001 µM; with HLA-C*06:02 (setting [18]) it was 0.006 µM; in the assay with HLA-C*15:02, 0.771 µM; with HLA-B*46:01 (setting [18]), ≥ 20 µM; in the assay with HLA-B*57:01 [4] (setting [18]), ≥ 20 µM; with HLA-A*03:01 [5] (setting [18]), ≥ 20 µM. For the same sequence, the dissociation constant Kd was ≥ 20 µM with HLA-B*15:01 [6] (setting [18]); ≥ 20 µM with HLA-B*27:03 (setting [18]); 0.13 µM with HLA-A*02:01 [7] (setting [18]); ≥ 20 µM with HLA-B*18:01 [8] (setting [18]); ≥ 20 µM in the assay with HLA-A*26:01 [10] (setting [18]).

For GLNDYLHSV, the Kd was ≥ 20 µM in the assay with HLA-C*03:03 (setting [19]) and 0.0016 µM with HLA-A*02:01 [7] (setting [19]).

Take LYIEILRLL: the Kd turned out to be 0.007 µM with HLA-A*24:03 (source organism: Mycobacterium avium 104) and 0.044 µM with HLA-C*06:02 (source organism: Mycobacterium tuberculosis C).

Take LMQWWSDYV: the Kd in the assay with HLA-B*08:01 was ≥ 20 µM; with HLA-A*69:01, 0.00476 µM; in the assay with HLA-A*01:01 (setting [17]) it was ≥ 20 µM; with HLA-A*03:01 [2] (setting [17]), ≥ 20 µM; with HLA-A*31:01 (setting [17]), 0.562 µM; with HLA-B*15:01 [12], 0.234 µM. Further, the Kd is ≥ 20 µM with HLA-A*11:01 (setting [17]); ≥ 20 µM with HLA-A*24:03 (setting [17]); 0.00574 µM with HLA-A*02:01 [13]; ≥ 20 µM with HLA-B*40:01 (setting [17]); ≥ 20 µM with HLA-B*27:05 (setting [17]); ≥ 20 µM in the assay with HLA-B*58:01 (setting [17]). For the same sequence, the Kd with HLA-B*07:02 is ≥ 20 µM; with HLA-A*26:01 [14] it was 0.343 µM; with HLA-A*02:12 (setting [17]), ≤ 0.0001 µM; with HLA-A*02:03 (setting [17]), ≤ 0.0001 µM; with HLA-A*02:11 (setting [17]), ≤ 0.0001 µM; with HLA-A*02:06 it was 0.00285 µM.
